Measurements taken from US20160046928A1 (Bicycle, published 2016).
Starred links: 1 amine or outer side, 2 acyl side, 3 side chain; linkers in the order of their positions; H or OH if unused. Positions of bridges follow the written chain, without caps; N, C: chain ends. Non-standard residues stand in square brackets, D forms with d. TBMB = c1c(C[*:1])cc(C[*:3])cc1C[*:2]; NMeR = CN[C@@H](CCCNC(=N)N)C(=O)O

B1: H-ACSDRfRNCPADEALCG-OH (D-Phe variant of PK15), TBMB conjugate (peptide)
peptide: H-ACSDR[dF]RNCPADEALCG-OH
modifications: linker 2-9-16 via TBMB
B2: H-ACSDRF-(NMeArg)-NCPADEALCG-OH (N-methyl-arginine variant of PK15), TBMB conjugate (peptide)
peptide: H-ACSDRF[NMeR]NCPADEALCG-OH
modifications: linker 2-9-16 via TBMB
B3: H-ACSDRF Y[CH2NH] RNCPADEALCG-OH (reduced peptide bond variant of PK15), TBMB conjugate (peptide)
peptide: H-ACSDRFRNCPADEALCG-OH
modifications: linker 2-9-16 via TBMB; also: reduced peptide bond Y[CH2NH] between Phe6 and Arg7

Target: kallikrein (UniProt P03952 20-638, limits assumed)
Test: cell-based or functional assay

Sequence of kallikrein (P03952 20-638 limits assumed): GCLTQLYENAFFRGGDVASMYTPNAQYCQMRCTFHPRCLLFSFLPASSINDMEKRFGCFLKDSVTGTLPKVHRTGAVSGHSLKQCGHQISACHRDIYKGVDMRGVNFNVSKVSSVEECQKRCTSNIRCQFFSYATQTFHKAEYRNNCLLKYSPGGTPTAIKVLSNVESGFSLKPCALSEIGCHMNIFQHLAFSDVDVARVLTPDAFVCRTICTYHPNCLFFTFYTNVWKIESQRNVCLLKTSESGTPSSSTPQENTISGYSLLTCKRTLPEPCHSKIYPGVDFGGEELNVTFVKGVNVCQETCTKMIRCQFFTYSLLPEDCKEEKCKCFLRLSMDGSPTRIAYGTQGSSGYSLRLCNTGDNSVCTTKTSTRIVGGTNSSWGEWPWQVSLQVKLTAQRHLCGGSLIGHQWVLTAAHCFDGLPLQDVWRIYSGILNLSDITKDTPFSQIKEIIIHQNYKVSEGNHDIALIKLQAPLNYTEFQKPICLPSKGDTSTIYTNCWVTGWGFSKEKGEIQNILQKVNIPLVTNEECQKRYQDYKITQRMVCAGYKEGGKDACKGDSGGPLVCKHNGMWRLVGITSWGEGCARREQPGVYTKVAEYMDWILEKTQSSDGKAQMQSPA

Row | Binder | inhibition of kallikrein activity (IC50, substrate Z-Phe-Arg-amc, fluorescence) [µM]
1 | B1 | 4
2 | B2 | 3.1
3 | B3 | 16.6
